Values quoted from earlier work in PMC7248566.

Target: Fibrinogen beta (Fgβ) (Homo sapiens) (UniProt P02675)

SdrG (from UniProt Q9KI13)
Kd: 350 nM
